In general, stoichiometry N refers to the number of molecules, sites or subunits per partner or assembly.

These results are taken from article PMC8626312, “In vitro assembly complex formation of TRAIP CC and RAP 80 zinc finger motif revealed by our study” (Saudi Journal of Biological Sciences, 2021).

B2: TRAIP CC (66–164 aa) (domain or fragment, human, UniProt Q9BWF2 66-164, looked up)
chain: LAQEEENVLDAEFLKNELDNVRAQLSQKDKEKRDSQVIIDTLRDTLEERNATVVSLQQALGKAEMLCSTLKKQMKYLEQQQDETKQAQEEARRLRSKMK
notes: The abstract prints 64–166 for this construct; Calculated mass with the C-terminal His tag is 12325 Da; also called TRAIP coiled-coil domain; TRAIP-1; source: E. coli BL21 (DE3), purified (Ni-NTA, SEC); not shown: His6, C-terminal, kept

Series [1] deals with the molecule itself. As to the kind of experiment: SEC; each protein alone on Superdex 200 HR 10/30, 20 mM Tris-HCl pH 8.0, 150 mM NaCl; oligomeric state from the elution volume. (SEC sorts molecules by how far they enter the pores of the column.)
The series “TRAIP CC (66–164 aa)” deals with B2. The series can be described thus: SEC; purified proteins mixed in a molar ratio of approximately 1:1, pre-incubated 30 min at 4 °C, Superdex 200 HR 10/30, 20 mM Tris-HCl pH 8.0, 150 mM NaCl; fractions on SDS-PAGE. Conditions: both partners purified.
Series [2] concerns the molecule itself. The series can be described thus: SEC-MALS; TRAIP CC alone on a size exclusion column HR 10/30, 20 mM Tris-HCl pH 8, 150 mM NaCl; three-angle light scattering and refractive index detectors (Wyatt mini-DAWN TREOS), ASTRA.

B1: RAP80 zinc finger (490–584 aa) (domain or fragment, human, UniProt Q96RL1 490-584, looked up)
chain: KEVAISTFSSSNQVSCPLCDQCFPPTKIERHAMYCNGLMEEDTVLTRRQKEAKTKSDSGTAAQTSLDIDKNEKCYLCKSLVPFREYQCHVDSCLQ
notes: RAP80 (receptor-associated protein 80), human, 719 aa, zinc finger motif, residues 490(K)-584(Q), 95 aa; the methods name pET24a with a C-terminal His6; also called RAP80 Zn finger motif; RAP80-1; source: E. coli BL21 (DE3), purified (Ni-NTA, SEC)
Consider B1, for which the “stoichiometry N” value in series [1] was found to be 3. In the series with TRAIP CC (66–164 aa), the binding result was “binds”. For the molecule B2, the “stoichiometry N” value in series [2] is 3.

B3: TRAIP RINGCC (1-157aa) (domain or fragment, human, UniProt Q9BWF2 1-157, looked up)
chain: MPIRALCTICSDFFDHSRDVAAIHCGHTFHLQCLIQWFETAPSRTCPQCRIQVGKRTIINKLFFDLAQEEENVLDAEFLKNELDNVRAQLSQKDKEKRDSQVIIDTLRDTLEERNATVVSLQQALGKAEMLCSTLKKQMKYLEQQQDETKQAQEEAR
notes: the methods name pET24a with a C-terminal His6; One sentence of the results prints 1–517; also called TRAIP-5; TRAIP RINGCC (1–517); source: E. coli BL21 (DE3), purified (Ni-NTA, SEC)
As for B3, the binding result in series [1] is “binds”.
